Results reported in publication PMC6990103 (Journal of molecular biology, 2019).

Assays:
[1] = target: T1, recombinant SUDV Boniface 1976 NP (Sudan ebolavirus, Boniface 1976, UniProt Q9QP77); assay: far-Western, overlay or dot blot; settings: both partners purified
T1 construct: also called SUDV NP; full-length NP polymers

[2] = target: T2, recombinant TAFV IC1 1994 NP (Tai Forest ebolavirus (TAFV)., UniProt B8XCN6); assay: far-Western, overlay or dot blot; settings: both partners purified
T2 construct: also called TAFV NP

recombinant BDBV 2007 NP [3] = target: T3, recombinant BDBV 2007 NP (Bundibugyo ebolavirus (BDBV)., UniProt B8XCM7); assay: far-Western, overlay or dot blot; settings: both partners purified
T3 construct: also called BDBV NP

[4] = target: T4, nluc-NP612 fusion protein, SUDV (Sudan ebolavirus, Boniface 1976 …, UniProt Q9QP77); assay: far-Western, overlay or dot blot; settings: both partners purified
T4 construct: also called SUDV NP612 C-terminus; source: E. coli BL21(DE3)+pRARE, cytosolic, purified (IMAC, SEC)

[5] = target: T5, nluc-NP612 fusion protein, RESTV (Reston ebolavirus, Reston 1989 (isolate …, UniProt Q8JPY1)); assay: far-Western, overlay or dot blot; settings: both partners purified
T5 construct: also called RESTV NP612 C-terminus; source: E. coli BL21(DE3)+pRARE, cytosolic, purified (IMAC, SEC)

[6] = target: T6, nluc-NP612 fusion protein, TAFV (Tai Forest ebolavirus, IC1 1994, UniProt B8XCN6); assay: far-Western, overlay or dot blot; settings: both partners purified
T6 construct: also called TAFV C-terminus; source: E. coli BL21(DE3)+pRARE, cytosolic, purified (IMAC, SEC)

[7] = target: T7, nluc-NP612 fusion protein, BDBV (Bundibugyo ebolavirus, Uganda 2007, UniProt B8XCM7); assay: far-Western, overlay or dot blot; settings: both partners purified
T7 construct: also called BDBV NP612 C-terminus; source: E. coli BL21(DE3)+pRARE, cytosolic, purified (IMAC, SEC)

[8] = target: T8, NP of SUDV Boniface 1976 in live virus preparation (Sudan ebolavirus, Boniface 1976, UniProt Q9QP77); assay: ELISA; settings: one partner purified
T8 construct: also called SUDV (virus)

[9] = target: T9, NP of TAFV IC1 1994 in live virus preparation (Tai Forest ebolavirus (TAFV)., UniProt B8XCN6); assay: ELISA; settings: one partner purified
T9 construct: also called TAFV (virus)

[10] = target: T1, recombinant SUDV Boniface 1976 NP; assay: ELISA; settings: both partners purified
[11] = target: T2, recombinant TAFV IC1 1994 NP; assay: ELISA; settings: both partners purified
recombinant BDBV 2007 NP [12] = target: T3, recombinant BDBV 2007 NP; assay: ELISA; settings: both partners purified
[13] = target: T4, nluc-NP612 fusion protein, SUDV; assay: ELISA; settings: both partners purified
[14] = target: T5, nluc-NP612 fusion protein, RESTV; assay: ELISA; settings: both partners purified
[15] = target: T6, nluc-NP612 fusion protein, TAFV; assay: ELISA; settings: both partners purified
[16] = target: T7, nluc-NP612 fusion protein, BDBV; assay: ELISA; settings: both partners purified

Measured: binding result

B1: sdAb ZE alkaline phosphatase fusion (VHH)
VHH: QVQLQESGGGLVQPGGSLRLSCTASGFTLAEYGVGWFRQAPGKERELVALIAVGGTTHSIDSVKGRFTISRDNMKNTVYLQMNSLNVEDTAVYYCNAYSSAYDRNYWGQGTQVTVSS
notes: also called sdAb-AP fusion of ZE; source: previously generated [9], stored at -80 °C
binds: [1] | [2] | recombinant BDBV 2007 NP [3] | [4] | [5] | [6] | [7]

B2: sdAb ZE, biotinylated (from pecan126) (VHH)
VHH: QVQLQESGGGLVQPGGSLRLSCTASGFTLAEYGVGWFRQAPGKERELVALIAVGGTTHSIDSVKGRFTISRDNMKNTVYLQMNSLNVEDTAVYYCNAYSSAYDRNYWGQGTQVTVSS
notes: also called anti-Ebola virus sdAb; oriented sdAb captor; source: E. coli HBV88, pecan126 preparations
binds: [8] | [9] | [10] | [11] | recombinant BDBV 2007 NP [12] | [13] | [14] | [15] | [16]
